Several values for one entry are separate records, joined by “and”; a condition that tells them apart may be missing. Equal entries are not always repeated.
Experiments:
M2e = test: peptide ELISA, mAb 5 ug/mL
[1] = target: M2 protein of A/Hong Kong/483/1997, expressed on cells (Influenza A virus A/Hong Kong/483/1997 (H5N1))

Row | Molecule | ELISA A450 (M2e) | FACS M2-HK MFI [1]
1 | TCN-032 (8I10) (antibody) | 0.13 | –
2 | 3260_D19 (antibody, V domains shown) VH: DMQLVESGGGLVPPGGSLRLSCAASGFSVSDNYINWVRQAPGKGLDWVSVFYSADRTSYADSVKGRFTVSSHDSKNTVYLQMNSLRAEDTAVYYCARVQKSYYGMDVWGQGTTVTVSS VL: GIQMTQSPSSLSASVGDRVTITCRASQSISRYLNWYLQKPGKAPKLLISGASSLQSGVPSRFSGTGSGTEFTLTISSLQPEDFATYYCQQTFSIPLFGQGTKVEIK | – | 846 MFI
3 | 3242_P05 (antibody, V domains shown) VH: DMQLVESGGGLVPPGGSLRLSCAASGFSVSDNYINWVRQAPGKGLDWVSVFYSADRTSYADSVKGRFTVSSHDSKNTVYLQMNSLRAEDTAVYYCARVQKSYYGMDVWGQGTTVTVSS VL: GIQMTQSPSSLSASVGDRVTITCRASQSISRYLNWYLQKPGKAPKLLISGASSLQSGVPSRFSGTGSGTEFTLTISSLQPEDFATYYCQQTFSIPLFGQGTKVEIK | – | 596 MFI
4 | TCN-032 (8I10) (antibody, V domains shown) VH: QVQLQESGPGLVKPSETLSLTCTVSGSSISNYYWSWIRQSPGKGLEWIGFIYYGGNTKYNPSLKSRVTISQDTSKSQVSLTMSSVTAAESAVYFCARASCSGGYCILDYWGQGTLVTVS VL: DIQMTQSPSSLSASVGDRVTITCRASQNIYKYLNWYQQRPGKAPKGLISAASGLQSGVPSRFSGSGSGTDFTLTITSLQPEDFATYYCQQSYSPPLTFGGGTRVEIK | – | 754 MFI and 1080 MFI
5 | 3252_C13 (antibody, V domains shown) VH: QVQLQESGPGLVKPSETLSLTCTVSGASISSDYWSWIRLPPGKGLEWIGYIYNRGSTKYTPSLKSRVTISLDTAENQFSLRLRSVTAADTAIYYCARHVGGHTYGIDYWGQGTLVTVSS VL: DIQMTQSPSSLSASVGDRVTITCRASQSISNYLNWYQHKPGEAPKLLNYAASSLQSGVPSRFSASGSGTDFTLTISSLQPEDFATYYCQQSYNTPITFGQGTRLEIK | – | 449 MFI
6 | 3255_J06 (antibody, V domains shown) VH: QVQLQESGPGLVKPSETLSLTCTVSGASISSDYWSWIRLPPGKGLEWIGYIYNRGSTKYTPSLKSRVTISLDTAENQFSLRLRSVTAADTAVYYCARHVGGHTYGIDYWGQGTLVTVSS VL: DIQMTQSPSSLSASVGDRVTITCRASQSISNYLNWYQHKPGEAPKLLNYAASSLQSGVPSRFSASGSGTDFTLSISGLQPEDFATYYCQQSYNTPITFGPGTRLEIK | – | 442 MFI
7 | 3420_I23 (antibody, V domains shown) VH: QVQLQESGPGLVKPSETLSVTCKVSGDSISSYSWSWIRQPPGKGLEWVGYLYYSGSTKYNPSLKSRTTISVDTSTNQLSLKLSFVTAADTAVYFCARTGSESTTGYGMDVWGQGTTVTVSS VL: DIQMTQSPSSLSASVGDRVTITCRASQSISTYLNWYQQKPGKAPKLLIYAASSLHSGVPSRFSGSGSGTDFALTISSLQPEDFATYYCQQSYSPPITFGQGTRLEIK | – | 112 MFI
8 | 3362_B11 (antibody, V domains shown) VH: QVQLQASGPGLVKPSETLSLTCTVSGDSITSGAYYWTWIRQHPGKGLEWIGYIYYSGNTYYNPSLKSRVTISLDTSKNQFSLKVNSVTAADTAVYYCARAASTSVLGYGMDVWGQGTTVTVSS VL: DIQMTQSPSSLSASVGDRVTITCRASQSISRYLNWYQQEPGKAPKLLVYAASSLQSGVPSRFSGSGSGTDFTLTISSLQPEDFATYYCQQSYSTPLTFGQGTRLEIK | – | 218 MFI
9 | 3244_H04 (antibody, V domains shown) VH: EVQLVESGGGLVQPGGSLRLSCTASGLSVSSTYMNWVRQAPGKGLEWVSVFYSETRTYYADSVKGRFTVSRHNSNNTLYLQMNSLRAEDTAVYYCARVQRLSYGMDVWGQGTTVTVSS VL: DIQMTQSPSSLSASVGDRVTITCRASQSISTYLNWYQKRPGKAPKLLVYGASSLQSGVPSRFSGSGSGTDFTLTIASLQPEDSAVYYCQQTYSIPLFGQGTRLEIK | – | 963 MFI
10 | 3245_O19 (antibody, V domains shown) VH: EVQLVESGGGLVQPGGSLRLSCTASGLSVSSTYMNWVRQAPGKGLEWVSVFYSETRTYYADSVKGRFTVSRHNSNNTLYLQMNSLRVEDTAVYYCARVQRLSYGMDVWGQGTTVTVSS VL: DIQMTQSPSSLSASVGDRVTITCRASQSISTYLNWYQKRPGKAPKLLVYGASTLQSGVPSRFSGSGSGTDFTLTIASLQPEDSATYYCQQTYSIPLFGQGTRLEIK | – | 919 MFI
11 | 3136_G05 (antibody, V domains shown) VH: QVQLQESGPGLVKPSETLSLTCSVSGGSISSDFWSWIRQPPGKGLEWIGYVYNRGSTKYSPSLKSRVTISADMSKNQFSLNMSSVTAADTAVYYCAKNGRSSTSWGIDVWGKGTTVTVSS VL: DIQMTQSPSSLSASVGDRLTITCRASQSISTYLHWYQQKPGKAPKLLIYAASSLQSGVPSRFSGSRSGTDFTLTISSLQPDDFATYYCQQSYSPPLTFGPGTKVDMK | – | 109 MFI
12 | 3259_J21 (antibody, V domains shown) VH: QVQLQESGPRVVRPSETLSLTCTVSGGSISSYNWIWIRQPPGKGLEWIGHIYDYGRTFYNSSLQSRPTISVDASKNQLSLRLTSVTASDTAVYYCARPLGILHYYAMDLWGQGTTVTVSS VL: DIQMTQSPLSVSVSVGDRVTIACRASQSIDKFLNWYQQKPGKAPKLLIYGASNLHSGAPSRFSASGSGTDFTLTITNIQTEDFATYLCQQSFSVPAFGGGTKVEIK | – | 1670 MFI
13 | 3248_P18 (antibody, V domains shown) VH: QVQLQESGPGLVKPSETLSLTCTVSGGSISAYHWSWIRQPPGKGLEWIGHIFDSGSTYYNPSLKSRVTISLDASKNQLSLRLTSVTASDTAIYYCARPLGSRYYYGMDVWGQGTTVTVSS VL: DIQMTQSPSSLSASVGDRVTITCRASQSISRYLNWYQQKPGKAPKLLIYGASTLQNGAPSRFSGSGSGTDFTLTISSLQPEDSATYLCQQSYSVPAFGGGTKVEVK | – | 967 MFI
14 | 3139_P23 (antibody, V domains shown) VH: QVQLQESGPRLVKPSESLSLTCTVSGGSISNSFWGWIRQPPGEGLEWIGYVYNSGNTKYNPSLKSRVTISRDTSKSQLYMKLRSVTAADTAVYYCARHDDASHGYSISWGHGTLVTVSS VL: DIQMTQSPSSLSASVGDRVTITCRASQTISTYLNWYQQKSGKAPKLLIYAASGLQSGVPSRFSGSGSGTDFTLTISSLQPEDFATYFCQQSYNTPLTFGQGTKVEIK | – | 110 MFI
15 | 3241_G23 (antibody, V domains shown) VH: QVQLQQSGPGLVKPSQTLSLTCTVSGGPVSGGGYSWNWIRQRPGQGLEWVGFMFHSGSPRYNPTLKSRITISVDTSKNLVSLKLSSVTAADTAVYFCARVGQMDKYYAMDVWGQGTTVTVSS VL: DIQMTQSPSSLSSSVGDRVTITCRASQSIGAYVNWYQQKAGKAPQVLIFGASNLQSGVPSRFSGSGSGTDFTLTISSLQPEDFATYFCQQTYSTPITFGQGTRLEIK | – | 1700 MFI
16 | 3253_P10 (antibody, V domains shown) VH: QVQLQESGPGLLKPSDTLALTCTVSGGSITSDYWSWIRQPPGRGLDWIGFFYNGGSTKYNPSLKSRVTISADTSKNQLSLKLTSVTAADTGVYYCARHDAKFSGSYYVASWGQGTRVTVSS VL: DIQMTQSPSSLSASVGDRVTISCRASQSISTYLNWYQQQPGKAPKVLISGATDLQSGVPSRFSGSGSGTDFTLTISSLQPEDFATYYCQQSYNTPLIFGQGTKLEIK | – | 43 MFI
17 | 3243_J07 (antibody, V domains shown) VH: QVQLQESGPGLLKPSDTLALTCTVSGGSITSDYWSWIRQPPGRGLDWIGFFYNGGSTKYNPSLKSRVTISADTSKNQLSLKLTSVTAADTGVYYCARHDVKFSGSYYVASWGQGTRVTVSS VL: DIQMTQSPSSLSASVGDRVTISCRASQSISTYLNWYQQQPGKAPKVLISGATNLQSGVPSRFSGSGSGTDFTLTISSLQPEDFATYYCQQSYNTPLIFGQGTKLEIK | – | 131 MFI
18 | 3244_I10 (antibody, V domains shown) VH: QVQLQESGPGLLKPSDTLALTCTVSGGSITSDYWSWIRQPPGRGLDWIGFFYNGGSTKYNPSLKSRVTISADTSKNQLSLKLTSVTAADTGVYYCARHDAKFSGSYYVASWGQGTRVTVSS VL: DIQMTQSPSSLSASVGDRVTISCRASQSISTYLNWYQQQPGKAPKVLIFGATNLQSGVPSRFSGSGSGTDFTLTISSLQPEDFATYYCQQSYNTPLIFGQGTKLEIK | – | 434 MFI
